Data as given in paper PMC9482650, “Quantitative fragmentomics allow affinity mapping of interactomes” (Nature Communications, 2022).

The binders below were run against T1, SNTG2, Q9NY99 (assay: holdup assay). Conditions: plain residues with an end cap or a label only (N-terminal biotin on a linker: ado-ado).
T1 sequence (Q9NY99 68-166, limits assumed, looked up): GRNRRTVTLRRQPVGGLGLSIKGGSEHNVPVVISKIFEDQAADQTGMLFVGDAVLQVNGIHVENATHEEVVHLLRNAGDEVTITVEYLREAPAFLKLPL
Parameters: key: below the threshold = too weak to quantify, mostly under pKd 3.1 to 4
With SGDGKTSVWI [GJC1, P36383] the pKd was “below the threshold”. With EPAKETTTNV [SLC2A3, P11169] the pKd was 4.03.

What follows are binders tested against IL16_4, Q14005 (assay: holdup assay). Conditions: plain residues with an end cap or a label only (N-terminal biotin on a linker: ado-ado).
Chain of IL16_4, Q14005 (Q14005 1229-1329): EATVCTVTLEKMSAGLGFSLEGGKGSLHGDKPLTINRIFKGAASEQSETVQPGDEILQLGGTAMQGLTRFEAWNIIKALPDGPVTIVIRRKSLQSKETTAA
Parameters: key: below the threshold = too weak to quantify, mostly under pKd 3.1 to 4
SGDGKTSVWI [GJC1, P36383] was tested, and the pKd was “below the threshold”. For EPAKETTTNV [SLC2A3, P11169], the pKd was “below the threshold”.

The binders below were run against SCRIB_2, Q14160 (assay: holdup assay). Conditions: plain residues with an end cap or a label only (N-terminal biotin on a linker: ado-ado).
Chain of SCRIB_2, Q14160 (Q14160 857-960): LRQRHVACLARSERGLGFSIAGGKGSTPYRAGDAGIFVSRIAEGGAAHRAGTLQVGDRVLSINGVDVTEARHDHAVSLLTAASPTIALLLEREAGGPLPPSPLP
Parameters: key: below the threshold = too weak to quantify, mostly under pKd 3.1 to 4
In the case of SGDGKTSVWI [GJC1, P36383], the pKd is reported as “below the threshold”. EPAKETTTNV [SLC2A3, P11169] gave a pKd of 3.68.

The binders below were run against T2, HTRA4, P83105 (assay: holdup assay). Conditions: plain residues with an end cap or a label only (N-terminal biotin on a linker: ado-ado).
T2 sequence (P83105 378-476, limits assumed, looked up): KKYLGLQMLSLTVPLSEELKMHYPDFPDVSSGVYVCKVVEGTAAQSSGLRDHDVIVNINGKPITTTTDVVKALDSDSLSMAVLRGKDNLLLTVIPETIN
Parameters: key: below the threshold = too weak to quantify, mostly under pKd 3.1 to 4
SGDGKTSVWI [GJC1, P36383] showed a pKd of 4.64. In the case of EPAKETTTNV [SLC2A3, P11169], the pKd is reported as “below the threshold”.

Each binder was assayed against T3, ARHGEF11, O15085 (assay: holdup assay). Conditions: plain residues with an end cap or a label only (N-terminal biotin on a linker: ado-ado).
T3 sequence (O15085 42-136, limits assumed, looked up): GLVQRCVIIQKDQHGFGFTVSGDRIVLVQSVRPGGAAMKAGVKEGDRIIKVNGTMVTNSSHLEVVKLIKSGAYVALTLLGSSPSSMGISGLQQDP
Parameters: key: below the threshold = too weak to quantify, mostly under pKd 3.1 to 4
Binder SGDGKTSVWI [GJC1, P36383] has a pKd of 3.61. EPAKETTTNV [SLC2A3, P11169] was tested, and the pKd was 4.

Each binder was assayed against FRMPD2_2, Q68DX3 (assay: holdup assay). Conditions: plain residues with an end cap or a label only (N-terminal biotin on a linker: ado-ado).
Chain of FRMPD2_2, Q68DX3 (Q68DX3 944-1038): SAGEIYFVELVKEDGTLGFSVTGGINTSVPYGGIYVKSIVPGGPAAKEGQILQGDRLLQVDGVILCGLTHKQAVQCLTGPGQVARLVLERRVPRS
Parameters: key: below the threshold = too weak to quantify, mostly under pKd 3.1 to 4
SGDGKTSVWI [GJC1, P36383] was tested, and the pKd was “below the threshold”. EPAKETTTNV [SLC2A3, P11169] gave a pKd of 4.11.

Each binder was assayed against Inadl_6, Q8NI35 (assay: holdup assay). Conditions: plain residues with an end cap or a label only (N-terminal biotin on a linker: ado-ado).
Chain of Inadl_6, Q8NI35 (Q8NI35 1058-1167): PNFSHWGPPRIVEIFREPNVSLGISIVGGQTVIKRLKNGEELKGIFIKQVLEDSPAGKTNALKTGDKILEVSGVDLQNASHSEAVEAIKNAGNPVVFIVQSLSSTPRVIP
Parameters: key: below the threshold = too weak to quantify, mostly under pKd 3.1 to 4
In the case of SGDGKTSVWI [GJC1, P36383], the pKd is reported as 3.69. EPAKETTTNV [SLC2A3, P11169] was tested, and the pKd was “below the threshold”.

Each binder was assayed against T4, APBA3_1, O96018 (assay: holdup assay). Conditions: plain residues with an end cap or a label only (N-terminal biotin on a linker: ado-ado).
T4 sequence (O96018 389-490, limits assumed, looked up): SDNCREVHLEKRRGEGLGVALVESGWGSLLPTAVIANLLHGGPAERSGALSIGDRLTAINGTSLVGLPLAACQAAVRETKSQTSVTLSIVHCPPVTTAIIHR
Parameters: key: below the threshold = too weak to quantify, mostly under pKd 3.1 to 4
In the case of SGDGKTSVWI [GJC1, P36383], the pKd is reported as “below the threshold”. In the case of EPAKETTTNV [SLC2A3, P11169], the pKd is reported as “below the threshold”.

These binders were tested against LNX1_2, Q8TBB1 (assay: holdup assay). Conditions: plain residues with an end cap or a label only (N-terminal biotin on a linker: ado-ado).
Chain of LNX1_2, Q8TBB1 (Q8TBB1 371-470): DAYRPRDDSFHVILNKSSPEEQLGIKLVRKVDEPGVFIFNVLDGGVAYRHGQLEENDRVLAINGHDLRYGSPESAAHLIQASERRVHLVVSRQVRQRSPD
Parameters: key: below the threshold = too weak to quantify, mostly under pKd 3.1 to 4
For SGDGKTSVWI [GJC1, P36383], the pKd was 4.03. For EPAKETTTNV [SLC2A3, P11169], the pKd was “below the threshold”.

The binders below were run against T5, SNTB1, Q13884 (assay: holdup assay). Conditions: plain residues with an end cap or a label only (N-terminal biotin on a linker: ado-ado).
T5 sequence (Q13884 107-205, limits assumed, looked up): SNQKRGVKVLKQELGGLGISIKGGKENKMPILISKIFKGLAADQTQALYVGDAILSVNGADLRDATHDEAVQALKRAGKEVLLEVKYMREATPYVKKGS
Parameters: key: below the threshold = too weak to quantify, mostly under pKd 3.1 to 4
For SGDGKTSVWI [GJC1, P36383], the pKd was “below the threshold”. EPAKETTTNV [SLC2A3, P11169] gave a pKd of 4.57.

The binders below were run against DLG1_3, Q12959 (assay: holdup assay). Conditions: plain residues with an end cap or a label only (N-terminal biotin on a linker: ado-ado).
Chain of DLG1_3, Q12959 (Q12959 457-571): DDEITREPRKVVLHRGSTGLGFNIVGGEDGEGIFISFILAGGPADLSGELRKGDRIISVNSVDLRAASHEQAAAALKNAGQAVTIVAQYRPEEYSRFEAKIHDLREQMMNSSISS
Parameters: key: below the threshold = too weak to quantify, mostly under pKd 3.1 to 4
For SGDGKTSVWI [GJC1, P36383], the pKd was “below the threshold”. EPAKETTTNV [SLC2A3, P11169] was tested, and the pKd was 3.6.

These binders were tested against T6, GRIP1_4, Q9Y3R0 (assay: holdup assay). Conditions: plain residues with an end cap or a label only (N-terminal biotin on a linker: ado-ado).
T6 sequence (Q9Y3R0 467-571, limits assumed, looked up): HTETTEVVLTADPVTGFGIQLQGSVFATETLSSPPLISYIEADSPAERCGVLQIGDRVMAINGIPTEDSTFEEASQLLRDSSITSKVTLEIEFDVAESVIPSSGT
Parameters: key: below the threshold = too weak to quantify, mostly under pKd 3.1 to 4
SGDGKTSVWI [GJC1, P36383] was tested, and the pKd was “below the threshold”. In the case of EPAKETTTNV [SLC2A3, P11169], the pKd is reported as “below the threshold”.

Each binder was assayed against T7, PDZD2_2, O15018 (assay: holdup assay). Conditions: plain residues with an end cap or a label only (N-terminal biotin on a linker: ado-ado).
T7 sequence (O15018 329-429, limits assumed, looked up): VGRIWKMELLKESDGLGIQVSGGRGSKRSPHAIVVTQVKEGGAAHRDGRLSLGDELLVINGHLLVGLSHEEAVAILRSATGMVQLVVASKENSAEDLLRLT
Parameters: key: below the threshold = too weak to quantify, mostly under pKd 3.1 to 4
With SGDGKTSVWI [GJC1, P36383] the pKd was 5.57. Work on EPAKETTTNV [SLC2A3, P11169] yielded a pKd of 4.97.

These binders were tested against LNX1_3, Q8TBB1 (assay: holdup assay). Conditions: plain residues with an end cap or a label only (N-terminal biotin on a linker: ado-ado).
Chain of LNX1_3, Q8TBB1 (Q8TBB1 500-596): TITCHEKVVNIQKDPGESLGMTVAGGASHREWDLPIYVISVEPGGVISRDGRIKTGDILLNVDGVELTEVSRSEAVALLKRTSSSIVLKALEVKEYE
Parameters: key: below the threshold = too weak to quantify, mostly under pKd 3.1 to 4
SGDGKTSVWI [GJC1, P36383] was tested, and the pKd was “below the threshold”. In the case of EPAKETTTNV [SLC2A3, P11169], the pKd is reported as “below the threshold”.

These binders were tested against T8, LNX2_3, Q8N448 (assay: holdup assay). Conditions: plain residues with an end cap or a label only (N-terminal biotin on a linker: ado-ado).
T8 sequence (Q8N448 463-564, limits assumed, looked up): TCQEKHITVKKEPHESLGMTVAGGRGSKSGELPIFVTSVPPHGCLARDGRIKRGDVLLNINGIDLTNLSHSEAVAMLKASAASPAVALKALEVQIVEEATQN
Parameters: key: below the threshold = too weak to quantify, mostly under pKd 3.1 to 4
With SGDGKTSVWI [GJC1, P36383] the pKd was “below the threshold”. For EPAKETTTNV [SLC2A3, P11169], the pKd was “below the threshold”.

What follows are binders tested against T9, NHERF3_4, Q5T2W1 (assay: holdup assay). Conditions: plain residues with an end cap or a label only (N-terminal biotin on a linker: ado-ado).
T9 sequence (Q5T2W1 373-468, limits assumed, looked up): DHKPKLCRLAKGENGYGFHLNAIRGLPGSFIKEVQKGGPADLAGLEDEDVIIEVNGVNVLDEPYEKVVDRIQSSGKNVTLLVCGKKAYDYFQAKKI
Parameters: key: below the threshold = too weak to quantify, mostly under pKd 3.1 to 4
In the case of SGDGKTSVWI [GJC1, P36383], the pKd is reported as 3.52. In the case of EPAKETTTNV [SLC2A3, P11169], the pKd is reported as “below the threshold”.

What follows are binders tested against MAGI2_4, Q86UL8 (assay: holdup assay). Conditions: plain residues with an end cap or a label only (N-terminal biotin on a linker: ado-ado).
Chain of MAGI2_4, Q86UL8 (Q86UL8 772-865): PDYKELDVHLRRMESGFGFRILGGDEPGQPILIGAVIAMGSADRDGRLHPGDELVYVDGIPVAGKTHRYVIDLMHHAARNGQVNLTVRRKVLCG
Parameters: key: below the threshold = too weak to quantify, mostly under pKd 3.1 to 4
SGDGKTSVWI [GJC1, P36383] was tested, and the pKd was “below the threshold”. For EPAKETTTNV [SLC2A3, P11169], the pKd was 3.57.

Each binder was assayed against TJP1_3, Q07157 (assay: holdup assay). Conditions: plain residues with an end cap or a label only (N-terminal biotin on a linker: ado-ado).
Chain of TJP1_3, Q07157 (Q07157 416-512): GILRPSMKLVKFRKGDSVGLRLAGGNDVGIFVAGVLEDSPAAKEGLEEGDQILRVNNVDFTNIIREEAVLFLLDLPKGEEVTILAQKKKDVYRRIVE
Parameters: key: below the threshold = too weak to quantify, mostly under pKd 3.1 to 4
SGDGKTSVWI [GJC1, P36383] showed a pKd of 4.11. For EPAKETTTNV [SLC2A3, P11169], the pKd was “below the threshold”.

These binders were tested against T10, PDZRN3_1, Q9UPQ7 (assay: holdup assay). Conditions: plain residues with an end cap or a label only (N-terminal biotin on a linker: ado-ado).
T10 sequence (Q9UPQ7 244-349, limits assumed, looked up): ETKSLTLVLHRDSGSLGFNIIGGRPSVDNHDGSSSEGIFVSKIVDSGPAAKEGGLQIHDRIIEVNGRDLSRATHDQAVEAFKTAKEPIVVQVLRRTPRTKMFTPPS
Parameters: key: below the threshold = too weak to quantify, mostly under pKd 3.1 to 4
SGDGKTSVWI [GJC1, P36383] was tested, and the pKd was “below the threshold”. For EPAKETTTNV [SLC2A3, P11169], the pKd was “below the threshold”.

Each binder was assayed against Inadl_3, Q8NI35 (assay: holdup assay). Conditions: plain residues with an end cap or a label only (N-terminal biotin on a linker: ado-ado).
Chain of Inadl_3, Q8NI35 (Q8NI35 359-469): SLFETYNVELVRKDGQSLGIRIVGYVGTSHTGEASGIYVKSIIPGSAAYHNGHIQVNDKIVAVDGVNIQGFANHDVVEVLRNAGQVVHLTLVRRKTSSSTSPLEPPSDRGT
Parameters: key: below the threshold = too weak to quantify, mostly under pKd 3.1 to 4
SGDGKTSVWI [GJC1, P36383] showed a pKd of 3.69. EPAKETTTNV [SLC2A3, P11169] was tested, and the pKd was “below the threshold”.

The binders below were run against SNX27, Q96L92 (assay: holdup assay). Conditions: plain residues with an end cap or a label only (N-terminal biotin on a linker: ado-ado).
Parameters: key: below the threshold = too weak to quantify, mostly under pKd 3.1 to 4
SGDGKTSVWI [GJC1, P36383] was tested, and the pKd was 3.56. EPAKETTTNV [SLC2A3, P11169] showed a pKd of 4.95.

What follows are binders tested against T11, TIAM2, Q8IVF5 (assay: holdup assay). Conditions: plain residues with an end cap or a label only (N-terminal biotin on a linker: ado-ado).
T11 sequence (Q8IVF5 885-986, limits assumed, looked up): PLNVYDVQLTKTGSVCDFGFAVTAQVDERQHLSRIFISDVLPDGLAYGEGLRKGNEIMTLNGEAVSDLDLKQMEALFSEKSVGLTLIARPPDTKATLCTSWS
Parameters: key: below the threshold = too weak to quantify, mostly under pKd 3.1 to 4
Binder SGDGKTSVWI [GJC1, P36383] has a pKd of 4.21. With EPAKETTTNV [SLC2A3, P11169] the pKd was “below the threshold”.

These binders were tested against DLG2_2, Q15700 (assay: holdup assay). Conditions: plain residues with an end cap or a label only (N-terminal biotin on a linker: ado-ado).
Chain of DLG2_2, Q15700 (Q15700 189-283): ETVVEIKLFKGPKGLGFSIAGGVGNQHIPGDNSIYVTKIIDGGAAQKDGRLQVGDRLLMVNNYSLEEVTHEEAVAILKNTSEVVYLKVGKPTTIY
Parameters: key: below the threshold = too weak to quantify, mostly under pKd 3.1 to 4
SGDGKTSVWI [GJC1, P36383] was tested, and the pKd was “below the threshold”. Work on EPAKETTTNV [SLC2A3, P11169] yielded a pKd of 4.16.

These binders were tested against T12, LIN7C, Q9NUP9 (assay: holdup assay). Conditions: plain residues with an end cap or a label only (N-terminal biotin on a linker: ado-ado).
T12 sequence (Q9NUP9 88-185, limits assumed, looked up): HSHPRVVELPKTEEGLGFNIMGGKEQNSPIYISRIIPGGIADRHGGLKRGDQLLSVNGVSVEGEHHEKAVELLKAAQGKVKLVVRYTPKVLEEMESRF
Parameters: key: below the threshold = too weak to quantify, mostly under pKd 3.1 to 4
SGDGKTSVWI [GJC1, P36383] was tested, and the pKd was “below the threshold”. With EPAKETTTNV [SLC2A3, P11169] the pKd was 4.05.

These binders were tested against AHNAK1, Q09666 (assay: holdup assay). Conditions: plain residues with an end cap or a label only (N-terminal biotin on a linker: ado-ado).
Chain of AHNAK1, Q09666 (Q09666 4-100): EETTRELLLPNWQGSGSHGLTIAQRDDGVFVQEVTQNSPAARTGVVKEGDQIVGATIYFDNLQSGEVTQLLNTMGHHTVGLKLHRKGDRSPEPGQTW
Parameters: key: below the threshold = too weak to quantify, mostly under pKd 3.1 to 4
SGDGKTSVWI [GJC1, P36383] was tested, and the pKd was “below the threshold”. With EPAKETTTNV [SLC2A3, P11169] the pKd was “below the threshold”.

Each binder was assayed against LAP2, Q96RT1 (assay: holdup assay). Conditions: plain residues with an end cap or a label only (N-terminal biotin on a linker: ado-ado).
Chain of LAP2, Q96RT1 (Q96RT1 other isoform, or with tags, fused parts or gaps): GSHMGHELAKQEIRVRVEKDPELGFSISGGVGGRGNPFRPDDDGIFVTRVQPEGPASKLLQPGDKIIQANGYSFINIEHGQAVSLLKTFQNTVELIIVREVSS
Parameters: key: below the threshold = too weak to quantify, mostly under pKd 3.1 to 4
For SGDGKTSVWI [GJC1, P36383], the pKd was 3.81. EPAKETTTNV [SLC2A3, P11169] showed a pKd of 3.64.
